Measured values: patent US11110115B2, “Nucleic acid molecule with anti-inflammatory and anti-coagulant and organ-protective properties” (APTAHEM AB, priority 2017, dated 2021)

Legend:
[1] = Arteriovenous shunt model, thrombus weight; format: in vivo, Sprague-Dawley male rats; conditions: SEQ ID NO:2 33.3 mg/kg i.v. 5 min prior; Rivaroxaban 10 mg/kg p.o. 90 min prior; 15 min extracorporeal circulation
Description: This study was conducted at Shanghai WuXi AppTec Co., Ltd., and in accordance with WuXi IACUC standard animal procedures along with the IACUC guidelines that are in compliance with the Animal Welfare Act, the Guide for the Care and Use of Laboratory Animals, and the Office of Laboratory Animal Welfare (OLAW). Sprague-Dawley male rats with body weight ranging between 150-200 g (Vital River; Bejing, P.R. China) were fed ad libitum a rodent diet. Animals had free access to autoclaved and acidified drinking water. Animals were housed under standard laboratory conditions, air conditioned and filtered with adequate fresh air supply. Animals were kept in a climate controlled environment. Rivaroxaban (10 mg/kg) has been dissolved in water and stored at 4° C. 20 mg SEQ ID NO:2 (Biospring) was dissolved in 3 ml Saline, vortexed for 5 min., sonicated with a water bath ultrasonic for 1 minute to achieve 6.66 mg/ml SEQ ID NO:2. The animals were assigned to 3 dosing groups according to the body weight (see table 2). […] Extracorporeal circulation was maintained for 15 min, the thrombus weight formed on the thread was calculated by subtracting the average weight of the rough nylon thread. Significance of difference between control and treated groups was analyzed by performing analysis of variance (ANOVA) by EXCEL office software.

[2] = Activated partial thromboplastin time (APTT) in arteriovenous shunt model; format: in vivo, Sprague-Dawley male rats; conditions: SEQ ID NO:2 33.3 mg/kg i.v. 5 min prior; Rivaroxaban 10 mg/kg p.o. 90 min prior
[3] = Comparable ex vivo APTT study, canine
[4] = Comparable ex vivo APTT study, non-human primate
[5] = Comparable ex vivo APTT study, human
[6] = tested on: CD11b+CD14+ white blood cells; experiment: Flow cytometry of CD11b and CD14 on white blood cells after LPS injection; format: in vivo, C57BL/6 mice; conditions: 2 h after LPS
Description: Female C57BL/6 mice (Taconic Biosciences) were 8 weeks of age at the start of the study. Animals had free access to autoclaved and acidified drinking water. Animals were housed under standard laboratory conditions, air conditioned and filtered with adequate fresh air supply. Animals were kept in a climate controlled environment.
SEQ ID NO:2 (Biospring) (100 mg) was dissolved in 5 ml saline to form a stock solution of 20 mg/ml. Vehicle is saline solution.
Dexamethasone stock was prepared by mixing dexamethasone and beta-cyclodextrin at a 4:96 ratio, solubilized in PBS at 2 mg dexamethasone/mL and stored at −20° C. Dosing solution of dexamethasone was prepared by diluting the stock solution to 1 mg/mL with PBS. Dexamethasone administered at 5 to 10 mg/kg, i.p. is used as a positive control for suppression of the immune response.
Two hours after LPS injection mice were bled and blood samples were taken. Flow cytometry study was performed on BD FACSCalibur (lasers: 488 nm; 635 nm and UV). In our study we measured the expression of integrin Mac-1 (CD11b/18) on leukocytes by means of flow cytometry. Expression of CD11b on all leukocytes monocytes and granulocytes were assessed by flow cytometry using double fluorescence staining (CD 45/CD11b).

B1: SEQ ID NO:2: nucleic acid sequence of SEQ ID NO:1 in which each C and U is fluorinated to increase stability in plasma (nucleic acid)
chain: GGGAAUUCGAGCUCGGUACCAACAAUACGACUACACCAUCAAAAGUAUUAUCUUGCAUCGAAGGUUGGCACGUAGCAAGCUCUGCAGUCG
modifications: fluorinated C and U; (6)..(7) uracil is fluorinated; (8)..(8) cytosine is fluorinated; (12)..(12) cytosine is fluorinated; (13)..(13) uracil is fluorinated; (14)..(14) cytosine is fluorinated; (17)..(17) uracil is fluorinated; (19)..(20) cytosine is fluorinated; (23)..(23) cytosine is fluorinated; (26)..(26) uracil is fluorinated; (28)..(28) cytosine is fluorinated; (31)..(31) cytosine is fluorinated; (32)
thrombus weight, less than vehicle group [1]: 48.1%
Activated Partial Thromboplastin Time (APTT) compared to vehicle group [2]: significant increase
positive effect on APTT [3]: confirmed
positive effect on APTT [4]: confirmed
positive effect on APTT [5]: confirmed
expression of CD11b compared to vehicle group ([6]; 5 mg/kg i.v.): similar
proportion of CD11b+CD14+ cells in white blood cells compared to vehicle group ([6]; 5 mg/kg i.v.): similar
proportion of CD11b+CD14+ cells in white blood cells compared to vehicle group ([6]; 25 mg/kg i.v.): significantly lower
expression of CD11b compared to vehicle group ([6]; 25 mg/kg i.v., not statistically significant): lower
lower expression of CD11b, difference to vehicle group ([6]; 50 mg/kg i.v.): statistically significant
proportion of CD11b+CD14+ cells in white blood cells compared to vehicle group ([6]; 50 mg/kg i.v.): significantly lower
